Starred links: 1 amine or outer side, 2 acyl side, 3 side chain; linkers in the order of their positions; H or OH if unused. Non-standard residues stand in square brackets, D forms with d. Groups on a side chain read outwards from the residue. No end group written: not given here. *: point of attachment. C18 diacid = O=C(O)CCCCCCCCCCCCCCCCC(=O)*; γGlu = O=C(O)[C@H](CCC(=O)[*:2])N[*:1]; Ac4c = NC1(C(=O)O)CCC1; AEEA = NCCOCCOCC(=O)O; Aib = CC(C)(N)C(=O)O
B1: N^ε28-[(4S)-4-carboxy-4-[[(4S)-4-carboxy-4-[[2-[2-[2-[[2-[2-[2-[[(4S)-4-carboxy-4-[[(4S)-4-carboxy-4-(17-carboxyheptadecanoylamino)butanoyl]amino]butanoyl]amino … (peptide)
peptide: H[Ac4c]QGTFTSDVSKYLESRRAREFVQWLIK([γGlu-γGlu-AEEA-AEEA-γGlu-γGlu-C18 diacid])T-NH2
modifications: N-terminus assumed
SMILES: CC[C@H](C)[C@H](NC(=O)[C@H](CC(C)C)NC(=O)[C@H](Cc1c[nH]c2ccccc12)NC(=O)[C@H](CCC(N)=O)NC(=O)[C@@H](NC(=O)[C@H](Cc1ccccc1)NC(=O)[C@H](CCC(=O)O)NC(=O)[C@H](CCCNC(=N)N)NC(=O)[C@H](C)NC(=O)[C@H](CCCNC(=N)N)NC(=O)[C@H](CCCNC(=N)N)NC(=O)[C@H](CO)NC(=O)[C@H](CCC(=O)O)NC(=O)[C@H](CC(C)C)NC(=O)[C@H](Cc1ccc(O)cc1)NC(=O)[C@H](CCCCN)NC(=O)[C@H](CO)NC(=O)[C@@H](NC(=O)[C@H](CC(=O)O)NC(=O)[C@H](CO)NC(=O)[C@@H](NC(=O)[C@H](Cc1ccccc1)NC(=O)[C@@H](NC(=O)CNC(=O)[C@H](CCC(N)=O)NC(=O)C1(NC(=O)[C@@H](N)Cc2c[nH]cn2)CCC1)[C@@H](C)O)[C@@H](C)O)C(C)C)C(C)C)C(=O)N[C@@H](CCCCNC(=O)CC[C@H](NC(=O)CC[C@H](NC(=O)COCCOCCNC(=O)COCCOCCNC(=O)CC[C@H](NC(=O)CC[C@H](NC(=O)CCCCCCCCCCCCCCCCC(=O)O)C(=O)O)C(=O)O)C(=O)O)C(=O)O)C(=O)N[C@H](C(N)=O)[C@@H](C)O
notes: also called Chem. 19; Chem 19
B2: N^ε29-[(4S)-4-carboxy-4-[[(4S)-4-carboxy-4-[[2-[2-[2-[[2-[2-[2-[[(4S)-4-carboxy-4-(17-carboxyheptadecanoylamino)butanoyl]amino]ethoxy]ethoxy]acetyl]amino]ethoxy … (peptide)
chain: H[Aib]QGTFTSDYSKYLESRRAQDFVAWLISK([γGlu-γGlu-AEEA-AEEA-γGlu-C18 diacid])-NH2
modifications: N-terminus assumed
SMILES: CC[C@H](C)[C@H](NC(=O)[C@H](CC(C)C)NC(=O)[C@H](Cc1c[nH]c2ccccc12)NC(=O)[C@H](C)NC(=O)[C@@H](NC(=O)[C@H](Cc1ccccc1)NC(=O)[C@H](CC(=O)O)NC(=O)[C@H](CCC(N)=O)NC(=O)[C@H](C)NC(=O)[C@H](CCCNC(=N)N)NC(=O)[C@H](CCCNC(=N)N)NC(=O)[C@H](CO)NC(=O)[C@H](CCC(=O)O)NC(=O)[C@H](CC(C)C)NC(=O)[C@H](Cc1ccc(O)cc1)NC(=O)[C@H](CCCCN)NC(=O)[C@H](CO)NC(=O)[C@H](Cc1ccc(O)cc1)NC(=O)[C@H](CC(=O)O)NC(=O)[C@H](CO)NC(=O)[C@@H](NC(=O)[C@H](Cc1ccccc1)NC(=O)[C@@H](NC(=O)CNC(=O)[C@H](CCC(N)=O)NC(=O)C(C)(C)NC(=O)[C@@H](N)Cc1c[nH]cn1)[C@@H](C)O)[C@@H](C)O)C(C)C)C(=O)N[C@@H](CO)C(=O)N[C@@H](CCCCNC(=O)CC[C@H](NC(=O)CC[C@H](NC(=O)COCCOCCNC(=O)COCCOCCNC(=O)CC[C@H](NC(=O)CCCCCCCCCCCCCCCCC(=O)O)C(=O)O)C(=O)O)C(=O)O)C(N)=O
B3: N^ε29-[(4S)-4-carboxy-4-[[(4S)-4-carboxy-4-[[2-[2-[2-[[2-[2-[2-[[(4S)-4-carboxy-4-(17-carboxyheptadecanoylamino)butanoyl]amino]ethoxy]ethoxy]acetyl]amino]ethoxy … (peptide)
chain: H[Aib]QGTFTSDLSKYLDLRRARDFVAWLISK([γGlu-γGlu-AEEA-AEEA-γGlu-C18 diacid])-NH2
modifications: N-terminus assumed
SMILES: CC[C@H](C)[C@H](NC(=O)[C@H](CC(C)C)NC(=O)[C@H](Cc1c[nH]c2ccccc12)NC(=O)[C@H](C)NC(=O)[C@@H](NC(=O)[C@H](Cc1ccccc1)NC(=O)[C@H](CC(=O)O)NC(=O)[C@H](CCCNC(=N)N)NC(=O)[C@H](C)NC(=O)[C@H](CCCNC(=N)N)NC(=O)[C@H](CCCNC(=N)N)NC(=O)[C@H](CC(C)C)NC(=O)[C@H](CC(=O)O)NC(=O)[C@H](CC(C)C)NC(=O)[C@H](Cc1ccc(O)cc1)NC(=O)[C@H](CCCCN)NC(=O)[C@H](CO)NC(=O)[C@H](CC(C)C)NC(=O)[C@H](CC(=O)O)NC(=O)[C@H](CO)NC(=O)[C@@H](NC(=O)[C@H](Cc1ccccc1)NC(=O)[C@@H](NC(=O)CNC(=O)[C@H](CCC(N)=O)NC(=O)C(C)(C)NC(=O)[C@@H](N)Cc1c[nH]cn1)[C@@H](C)O)[C@@H](C)O)C(C)C)C(=O)N[C@@H](CO)C(=O)N[C@@H](CCCCNC(=O)CC[C@H](NC(=O)CC[C@H](NC(=O)COCCOCCNC(=O)COCCOCCNC(=O)CC[C@H](NC(=O)CCCCCCCCCCCCCCCCC(=O)O)C(=O)O)C(=O)O)C(=O)O)C(N)=O
B4: N^ε29-[(4S)-4-carboxy-4-[[(4S)-4-carboxy-4-[[2-[2-[2-[[2-[2-[2-[[(4S)-4-carboxy-4-(17-carboxyheptadecanoylamino)butanoyl]amino]ethoxy]ethoxy]acetyl]amino]ethoxy … (peptide)
chain: H[Aib]QGTFTSDLSKYLDLRRAREFVQWLISK([γGlu-γGlu-AEEA-AEEA-γGlu-C18 diacid])-NH2
modifications: N-terminus assumed
SMILES: CC[C@H](C)[C@H](NC(=O)[C@H](CC(C)C)NC(=O)[C@H](Cc1c[nH]c2ccccc12)NC(=O)[C@H](CCC(N)=O)NC(=O)[C@@H](NC(=O)[C@H](Cc1ccccc1)NC(=O)[C@H](CCC(=O)O)NC(=O)[C@H](CCCNC(=N)N)NC(=O)[C@H](C)NC(=O)[C@H](CCCNC(=N)N)NC(=O)[C@H](CCCNC(=N)N)NC(=O)[C@H](CC(C)C)NC(=O)[C@H](CC(=O)O)NC(=O)[C@H](CC(C)C)NC(=O)[C@H](Cc1ccc(O)cc1)NC(=O)[C@H](CCCCN)NC(=O)[C@H](CO)NC(=O)[C@H](CC(C)C)NC(=O)[C@H](CC(=O)O)NC(=O)[C@H](CO)NC(=O)[C@@H](NC(=O)[C@H](Cc1ccccc1)NC(=O)[C@@H](NC(=O)CNC(=O)[C@H](CCC(N)=O)NC(=O)C(C)(C)NC(=O)[C@@H](N)Cc1c[nH]cn1)[C@@H](C)O)[C@@H](C)O)C(C)C)C(=O)N[C@@H](CO)C(=O)N[C@@H](CCCCNC(=O)CC[C@H](NC(=O)CC[C@H](NC(=O)COCCOCCNC(=O)COCCOCCNC(=O)CC[C@H](NC(=O)CCCCCCCCCCCCCCCCC(=O)O)C(=O)O)C(=O)O)C(=O)O)C(N)=O

Legend:
[1] = biological target: T1, human GLP-1 receptor (human, UniProt P43220 24-463); assay: cell-based or functional assay
[2] = biological target: T2, human glucagon receptor (human, UniProt P47871 26-477); assay: cell-based or functional assay
[3] = biological target: T2, human glucagon receptor; assay: displacement of [125I]-glucagon from BHK membranes with human glucagon receptor, SPA, no serum albumin
[4] = biological target: T1, human GLP-1 receptor; assay: displacement of [125I]-GLP-1-(7-36)NH2 from BHK membranes with human GLP-1R, SPA, no serum albumin

T2 sequence (P47871 26-477): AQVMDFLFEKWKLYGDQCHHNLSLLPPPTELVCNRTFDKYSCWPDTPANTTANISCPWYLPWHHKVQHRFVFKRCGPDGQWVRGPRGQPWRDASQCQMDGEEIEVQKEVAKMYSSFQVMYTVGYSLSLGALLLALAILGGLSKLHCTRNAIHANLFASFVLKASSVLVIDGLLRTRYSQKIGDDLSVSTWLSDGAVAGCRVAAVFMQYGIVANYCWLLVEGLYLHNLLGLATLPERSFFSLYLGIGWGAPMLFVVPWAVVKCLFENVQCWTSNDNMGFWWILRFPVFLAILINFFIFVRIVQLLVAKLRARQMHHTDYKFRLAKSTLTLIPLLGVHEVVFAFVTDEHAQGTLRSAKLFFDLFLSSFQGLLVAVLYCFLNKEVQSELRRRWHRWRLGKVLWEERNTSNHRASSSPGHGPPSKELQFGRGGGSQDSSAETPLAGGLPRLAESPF

Binder	GLP-1R EC50 (pM) [Assay (I)(a)], CRE luciferase reporter, BHK cells [1]	GlucagonR EC50 (pM), [Assay (I)(b)], CRE luciferase reporter, BHK cells [2]	IC50 [3]	IC50 [4]
H[Ac4c]QGTFTSDLSKYLESRRAREFVQWLIK([Gly-Ser-Glu-Gly-Ser-γGlu-γGlu-C18 diacid])T-NH2 (also called Chem. 16; Chem 16)	5 pM	13 pM	2.7 nM	
B1	6 pM	37 pM	2.5 nM	
B2			60 nM	2.2 nM
H[Aib]QGTFTSDLSKYLDARRARDFVQWLIK([γGlu-γGlu-γGlu-C18 diacid])T-NH2 (also called Chem. 15; Chem 15)	4 pM	7 pM	1.7 nM	
B3			144 nM	1.1 nM
B4			71.2 nM	0.9 nM

— patent US20170101454A1 (Novo Nordisk, published 2017)
